From article PMC8575462, “PP2A/B55α substrate recruitment as defined by the retinoblastoma-related protein p107” (eLife, 2021) come the findings set out here.

First the molecules themselves.
B1: GST-p107 R1R2 [not stated] / B55α (PP2A regulatory subunit B55α), endogenous in U-2 OS cells [human (endogenous in U-2 OS)] (parent)
chain 1: KVPTCEEVIFPNNFETGNGGNVQGHLPLMPMSPLMHPRVKEVRTDSGSLRRDMQPLSPISVHERYSSPTAGSAKRRLF
chain 2: MAGAGGGNDIQWCFSQVKGAVDDDVAEADIISTVEFNHSGELLATGDKGGRVVIFQQEQENKIQSHSRGEYNVYSTFQSHEPEFDYLKSLEIEEKINKIRWLPQKNAAQFLLSTNDKTIKLWKISERDKRPEGYNLKEEDGRYRDPTTVTTLRVPVFRPMDLMVEASPRRIFANAHTYHINSISINSDYETYLSADDLRINLWHLEITDRSFNIVDIKPANMEELTEVITAAEFHPNSCNTFVYSSSKGTIRLCDMRASALCDRHSKLFEEPEDPSNRSFFSEIISSISDVKFSHSGRYMMTRDYLSVKIWDLNMENRPVETYQVHEYLRSKLCSLYENDCIFDKFECCWNGSDSVVMTGSYNNFFRMFDRNTKRDITLEASRENNKPRTVLKPRKVCASGKRKKDEISVDSLDFNKKILHTAWHPKENIIAVATTNNLYIFQDKVN

In this test the parent is B1. As to the kind of experiment: GST pull-down, western blot. The note with it: with B55α (PP2A regulatory subunit B55α), U2-OS lysates, triplicate, read off a plot. (In general: A western blot detects proteins with antibodies after separation by electrophoresis.)
On to chain 1 KVPTCEEVIFPNNFETGNGGNVQGHLPLMPMSPLMHPRVKEVRTDSGSLRRDMQPLSPISVHEAYSSPTAGSAKRRLF [chain 1 R64A], for which the ratio to parent turned out to be 0.57.
